B1: Strep-Tag-II BR_(187–385) (KRT10-binding domain of the pneumococcal serine-rich repeat protein PsrP) [S. pneumoniae TIGR4] / KRT10 tail-rod-2B domain (KRT10-TRD) [human] (parent complex)
chain 1: FSGNTIVNGAPAINASLNIAKSETKVYTGEGVDSVYRVPIYYKLKVTNDGSKLTFTYTVTYVNPKTNDLGNISSMRPGYSIYNSGTSTQTMLTLGSDLGKPSGVKNYITDKNGRQVLSYNTSTMTTQGSGYTWGNGAQMNGFFAKKGYGLTSSWTVPITGTDTSFTFTPYAARTDRIGINYFNGGGKVVESSTTSQSLS
chain 2: LKQSLEASLAETEGRYCVQLSQIQAQISALEEQLQQIRAETECQNTEYQQLLDIKIRLENEIQTYRSLLEGEGSSGGGGRGGGSFGGGYGGGSSGGGSSGGGHGGGHGGSSGGGYGGGSSGGGSSGGGYGGGSSSGGHGGSSSGGYGGGSSGGGGGGYGGGSSGGGSSSGGGYGGGSSSGGHKSSSSGSVGESSS

Variants of: B1
Assay: ELISA; KRT10-TRD coated in wells of ELISA plates; parent: 1; read off a plot
Work on chain 1 FSGNTIVNGAPAINASLNIAKSETKVYTGEGVDSVYRVPIYYKLKVTNDGSKLTFTYTVTYVNPKTNDLGNISSMRPGYSIYNSGTSTQTMLTLGSDLGKPSGVKNYITDKNGRQVLSYNTSTMTTQGSGYTWGAGAQMNGFFAKKGYGLTSSWTVPITGTDTSFTFTPYAARTDRIGINYFNGGGKVVESSTTSQSLS [chain 1 N135A] yielded a response of ~1.1 normalized absorbance.
For chain 1 FSGNTIVNGAPAINASLNIAKSETKVYTGEGVDSVYRVPIYYKLAVTNDGSKLTFTYTVTYVNPKTNDLGNISSMRPGYSIYNSGTSTQTMLTLGSDLGKPSGVKNYITDKNGRQVLSYNTSTMTTQGSGYTWGNGAQMNGFFAKKGYGLTSSWTVPITGTDTSFTFTPYAARTDRIGINYFNGGGKVVESSTTSQSLS [chain 1 K45A], the response was ~0.97 normalized absorbance.
